The values below are quoted from earlier work in article PMC2879464.

Like-named read-outs stand apart in the source and are kept apart here.

Series [1] has as its target cortactin (Homo sapiens) (UniProt Q14247).
Series [2] shares this target. The source holds these as a separate data set.

Chain of UniProt Q14247 (Q14247 whole entry): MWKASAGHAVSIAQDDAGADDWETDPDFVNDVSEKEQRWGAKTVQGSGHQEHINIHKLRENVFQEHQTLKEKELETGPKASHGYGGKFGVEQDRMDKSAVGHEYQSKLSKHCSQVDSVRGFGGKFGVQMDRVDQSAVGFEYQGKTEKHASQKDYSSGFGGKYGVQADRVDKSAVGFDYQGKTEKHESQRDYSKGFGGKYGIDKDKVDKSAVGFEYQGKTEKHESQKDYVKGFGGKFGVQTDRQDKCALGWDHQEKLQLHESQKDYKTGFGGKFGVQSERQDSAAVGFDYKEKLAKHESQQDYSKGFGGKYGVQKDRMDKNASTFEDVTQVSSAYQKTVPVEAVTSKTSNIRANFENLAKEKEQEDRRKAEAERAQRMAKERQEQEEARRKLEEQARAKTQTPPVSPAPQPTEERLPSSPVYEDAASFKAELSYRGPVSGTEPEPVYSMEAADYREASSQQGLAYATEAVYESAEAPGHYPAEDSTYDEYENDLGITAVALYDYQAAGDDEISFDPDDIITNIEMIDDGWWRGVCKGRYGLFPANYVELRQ

Take nmMLCK2 (from UniProt Q15746): the Kd (in general, a measure of binding affinity in units of concentration) with cortactin (Homo sapiens) [1] was 250 nM.

On to nmMLCK1 (from UniProt Q15746), for which the Kd in the series with cortactin (Homo sapiens) [2] was 1000 nM.
